According to US20020122799A1 (published 2002):

What was measured:
mutant human RAGE (82S) [1] = target: T1, mutant human RAGE (82S) (human, UniProt Q15109 23-404); experiment: radioligand binding to stably transfected CHO cells expressing human RAGE (82S), Klotz-Hunston fit
T1 construct: whole, on cells; Position 82 counts on the precursor with leader; also called RAGE (G82S); RAGE (S82S)
Method: (§1) FIG. 11A. Immunoblotting. Lysates of stably-transfected CHO cells were prepared and subjected to immunoblotting using anti-human RAGE IgG (2 μg/ml). FIGS. 11B-C. Radioligand binding assays. Purified EN-RAGE was radiolabelled using ¹²⁵-I and radioligand binding assays were performed in 96-well tissue culture dishes containing the indicated transfected CHO cells. Assays were performed in the presence of the indicated concentration of radiolabelled EN-RAGE±an 50-fold molar excess of unlabeled EN-RAGE. Elution of bound material was performed in a solution containing heparin. Equilibrium binding data were analyzed according to the equation of Klotz and Hunston. Where indicated, pretreatment with either antibodies (70 μg/ml), human soluble RAGE or bovine serum albumin (50-fold molar excess) was performed. The mean±standard deviation (SD) is shown. In FIG. 11C, * indicates p<0.01 versus respective controls. FIG. 11D. Activation of p44/p42 MAP kinases. The indicated stably-transfected CHO cells were incubated with EN-RAGE, 10 μg/ml, for one hr. Cell lysates were subjected to SDS-PAGE and transfer of the gels' contents to nitrocellulose. Immunblotting was performed using anti-phosphorylated p44/p42 MAP kinase (1 μg/ml). […] In FIGS. 11D-11E, bands were scanned into a densitometer, and band density was quantified using ImageQuant. […]

macrophage (MP) RAGE = target: T2, macrophage (MP) RAGE; experiment: binding to macrophages in culture wells
T2 construct: whole, on cells; also called RAGE on macrophages

[2] = target: T3, wild-type human RAGE (Receptor for Advanced Glycation Endproducts) (human, UniProt Q15109 23-404); experiment: radioligand binding to stably transfected CHO cells expressing wild-type human RAGE, Klotz-Hunston fit
T3 construct: whole, on cells; also called Receptor for AGE; wild-type RAGE (Gly82)
T3 sequence (Q15109 23-404): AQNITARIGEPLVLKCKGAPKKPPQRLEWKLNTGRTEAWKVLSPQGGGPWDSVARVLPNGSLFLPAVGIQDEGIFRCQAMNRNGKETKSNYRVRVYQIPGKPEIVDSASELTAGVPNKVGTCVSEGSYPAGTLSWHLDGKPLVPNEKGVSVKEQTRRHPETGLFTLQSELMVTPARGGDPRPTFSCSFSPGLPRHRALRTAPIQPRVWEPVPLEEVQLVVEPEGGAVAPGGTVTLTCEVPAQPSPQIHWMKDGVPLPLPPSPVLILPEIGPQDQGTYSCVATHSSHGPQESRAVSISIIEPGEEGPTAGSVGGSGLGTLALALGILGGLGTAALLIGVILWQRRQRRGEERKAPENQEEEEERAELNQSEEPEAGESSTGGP
Method: as §1

immobilized RAGE = immobilized RAGE (Homo sapiens (Human), UniProt Q15109 23-342); experiment: binding to RAGE immobilized in culture wells
Sequence of immobilized RAGE (Q15109 23-342 limits assumed, form in doubt): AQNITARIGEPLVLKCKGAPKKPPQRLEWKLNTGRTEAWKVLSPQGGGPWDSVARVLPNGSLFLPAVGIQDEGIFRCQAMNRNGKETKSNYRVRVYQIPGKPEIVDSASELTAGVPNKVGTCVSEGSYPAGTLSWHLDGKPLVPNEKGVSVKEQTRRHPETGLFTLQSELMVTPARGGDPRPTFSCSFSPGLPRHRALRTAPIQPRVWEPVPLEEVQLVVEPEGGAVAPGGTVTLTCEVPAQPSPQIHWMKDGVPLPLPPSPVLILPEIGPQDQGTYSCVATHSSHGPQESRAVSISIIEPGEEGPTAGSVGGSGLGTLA

[3] = target: T3, wild-type human RAGE (Receptor for …); experiment: cell-based or functional assay
mutant human RAGE (82S) [4] = target: T1, mutant human RAGE (82S); experiment: cell-based or functional assay
[5] = target: T3, wild-type human RAGE (Receptor for …); experiment: binding to endothelial cells in culture wells

T1 sequence (Q15109 other isoform, or with tags, fused parts or gaps mutant): as the sequence (Q15109 23-404) above, with G60S counted along it

B1: EN-RAGE (Extracellular Novel RAGE binding protein) (ligand, bovine, UniProt P79105 2-92, looked up)
chain: TKLEDHLEGIINIFHQYSVRVGHFDTLNKRELKQLITKELPKTLQNTKDQPTIDKIFQDLDADKDGAVSFEEFVVLVSRVLKTAHIDIHKE
modifications: radiolabelled with 125-I (Iodobeads) in the radioligand binding assays
notes: mature; also called S100A12
Mutant human RAGE (82S) [1]
  Kd: ~77 nM
Macrophage (MP) RAGE
  Kd: ~75 nM
[2]
  Kd: ~122 nM
Immobilized RAGE
  Kd: ~75 nM
[3]
  MMP-9 activity (zymography) of human MPs: ~2.3 fold
  NF-kB nuclear binding activity (EMSA) in CHO transfectants: ~5.4 fold
  activation of p44/p42 MAP kinases in human MPs: ~2.2 fold
  adhesion of Molt-4 cells to cultured ECs: 7 fold
  expression of cell-surface VCAM-1 on cultured ECs: 4.3 fold
  generation of IL-6 by human MPs: ~1.5 fold
  generation of TNF-alpha by human MPs: ~4 fold
  phosphorylated p44/42 MAP kinases in CHO transfectants: ~2 fold
Mutant human RAGE (82S) [4]
  IL-6, mutant RAGE against wild-type MPs: ~7.3 fold
  MMP-9 activity (zymography) of human MPs: ~4.7 fold
  MMP-9 activity, mutant RAGE allele against wild-type receptor MPs: ~2 fold
  NF-kB gel shift band (EMSA) in CHO transfectants: ~11.3 fold
  NF-κB activation, mutant against wild-type receptor: ~2.1 fold
  TNF-alpha, RAGE (G82S)/(S82S) against wild-type RAGE MPs: ~4.5 fold
  elaborated TNF-alpha by human MPs: ~17.8 fold
  generation of IL-6 by human MPs: ~10.9 fold
  phosphorylated p44/42 MAP kinases in CHO transfectants: ~3.9 fold
  phosphorylated p44 and p42 MAP kinases in human MPs: ~4.8 fold
[5]
  Kd: ~75 nM
